From US20260365739 (published 2026)

Each binder was assayed against IGF1R (human, UniProt P08069) (assay: SPR).
IGF1R, sequence (P08069 31-932): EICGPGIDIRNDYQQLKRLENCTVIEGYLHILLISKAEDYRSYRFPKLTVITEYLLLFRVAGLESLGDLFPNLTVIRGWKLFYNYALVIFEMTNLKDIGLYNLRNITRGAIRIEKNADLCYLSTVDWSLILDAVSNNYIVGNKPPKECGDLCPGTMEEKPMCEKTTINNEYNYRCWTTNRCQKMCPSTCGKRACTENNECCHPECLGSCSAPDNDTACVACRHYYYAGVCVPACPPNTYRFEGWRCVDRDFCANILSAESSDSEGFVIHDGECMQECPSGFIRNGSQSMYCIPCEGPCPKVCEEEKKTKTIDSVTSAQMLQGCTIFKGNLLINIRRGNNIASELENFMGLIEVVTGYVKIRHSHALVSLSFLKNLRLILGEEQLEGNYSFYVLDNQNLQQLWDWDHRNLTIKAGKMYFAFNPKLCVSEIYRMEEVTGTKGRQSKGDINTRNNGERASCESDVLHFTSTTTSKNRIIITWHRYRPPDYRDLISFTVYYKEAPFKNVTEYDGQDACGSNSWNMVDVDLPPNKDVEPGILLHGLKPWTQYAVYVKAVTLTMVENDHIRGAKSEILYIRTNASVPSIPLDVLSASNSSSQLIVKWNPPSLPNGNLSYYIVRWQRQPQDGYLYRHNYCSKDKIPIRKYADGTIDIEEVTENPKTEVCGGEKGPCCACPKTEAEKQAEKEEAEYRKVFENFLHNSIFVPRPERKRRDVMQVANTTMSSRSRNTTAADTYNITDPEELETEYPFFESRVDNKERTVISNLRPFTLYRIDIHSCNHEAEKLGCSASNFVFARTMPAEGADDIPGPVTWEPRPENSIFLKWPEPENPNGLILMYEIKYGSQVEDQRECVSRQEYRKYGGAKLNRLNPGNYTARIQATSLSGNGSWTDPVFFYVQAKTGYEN

Kd [nM]	Binder
0.8	IGF1R5_4_25 (antibody, V domains shown) VH: QVKCEESGGGLVQAGGSLRLSCACSGRTIDNYAMAWSRQAPGKDREFVATIDWGDGGARYANSVKGRFTISRDNAKGTMYLQMNNLEPEDTAVYSCAMARQSRVNLDVARYDYWGQGTQVTVSS
1.1	IGF1R5 (antibody, V domains shown) VH: QVKLEESGGGLVQAGGSLRLSCAASGRTIDNYAMAWSRQAPGKDREFVATIDWGDGGARYANSVKGRFTISRDNAKGTMYLQMNNLEPEDTAVYSCAMARQSRVNLDVARYDYWGQGTQVTVSS
1.4	IGF1R5_22_88 (antibody, V domains shown) VH: QVKLEESGGGLVQAGGSLRLCCAASGRTIDNYAMAWSRQAPGKDREFVATIDWGDGGARYANSVKGRFTISRDNAKGTMCLQMNNLEPEDTAVYSCAMARQSRVNLDVARYDYWGQGTQVTVSS
0.5	IGF1R4_22_88 (antibody, V domains shown) VH: QVKLEESGGGLVQAGGSLRLCCEVSGGTVSPTAMGWFRQAPGKEREFVGHITWSRGTTRVASSVKDRFTISRDSAKNTVCLQMNSLKSEDTAVYYCAASTFLRILPEESAYTYWGQGTQVTVSS
0.3	IGF1R4_6_119 (designed binder) QVKLECSGGGLVQAGGSLRLSCEVSGGTVSPTAMGWFRQAPGKEREFVGHITWSRGTTRVASSVKDRFTISRDSAKNTVYLQMNSLKSEDTAVYYCAASTFLRILPEESAYTYWCQGTQVTVSS
0.5	IGF1R4_4_25 (antibody, V domains shown) VH: QVKCEESGGGLVQAGGSLRLSCECSGGTVSPTAMGWFRQAPGKEREFVGHITWSRGTTRVASSVKDRFTISRDSAKNTVYLQMNSLKSEDTAVYYCAASTFLRILPEESAYTYWGQGTQVTVSS
1.1	IGF1R4_24_86 (antibody, V domains shown) VH: QVKLEESGGGLVQAGGSLRLSCCVSGGTVSPTAMGWFRQAPGKEREFVGHITWSRGTTRVASSVKDRFTISRDSAKNCVYLQMNSLKSEDTAVYYCAASTFLRILPEESAYTYWGQGTQVTVSS
0.3	IGF1R4 (antibody, V domains shown) VH: QVKLEESGGGLVQAGGSLRLSCEVSGGTVSPTAMGWFRQAPGKEREFVGHITWSRGTTRVASSVKDRFTISRDSAKNTVYLQMNSLKSEDTAVYYCAASTFLRILPEESAYTYWGQGTQVTVSS

The remaining lines, values behind:

Binder	Kd [nM]
IGF1R3_6_119 (designed binder) QVKLECSGGGLVQAGGSLRLSCVASEYPSNFYAMSWFRQAPGKEREFVAGVSRDGLTTLYADSVKGRFTMSRDNAKNTVDLQMNSVKAEDTAVYYCAIVITGVWNKVDVNSRSYHYWCQGTQVTVSS	1.4
IGF1R3_22_88 (antibody, V domains shown) VH: QVKLEESGGGLVQAGGSLRLCCVASEYPSNFYAMSWFRQAPGKEREFVAGVSRDGLTTLYADSVKGRFTMSRDNAKNTVCLQMNSVKAEDTAVYYCAIVITGVWNKVDVNSRSYHYWGQGTQVTVSS	0.8
IGF1R3_4_25 (antibody, V domains shown) VH: QVKCEESGGGLVQAGGSLRLSCVCSEYPSNFYAMSWFRQAPGKEREFVAGVSRDGLTTLYADSVKGRFTMSRDNAKNTVDLQMNSVKAEDTAVYYCAIVITGVWNKVDVNSRSYHYWGQGTQVTVSS	2.3
IGF1R3 (antibody, V domains shown) VH: QVKLEESGGGLVQAGGSLRLSCVASEYPSNFYAMSWFRQAPGKEREFVAGVSRDGLTTLYADSVKGRFTMSRDNAKNTVDLQMNSVKAEDTAVYYCAIVITGVWNKVDVNSRSYHYWGQGTQVTVSS	0.9
IGF1R3_24_86 (antibody, V domains shown) VH: QVKLEESGGGLVQAGGSLRLSCCASEYPSNFYAMSWFRQAPGKEREFVAGVSRDGLTTLYADSVKGRFTMSRDNAKNCVDLQMNSVKAEDTAVYYCAIVITGVWNKVDVNSRSYHYWGQGTQVTVSS	5.3

These binders were tested against EGFR (human, UniProt P00533) (assay: SPR).

Kd [nM]	Binder
14.6	EG2 (antibody, V domains shown) VH: QVQLVESGGGLVQAGDSLRVSCAASGRDFSDYVMGWFRQAPGKEREFVAAISRNGLTTRYADSVKGRFTISRDNDKNMVYLQMNSLKPEDTAVYYCAVNSAGTYVSPRSREYDYWGQGTQVTVSS
62.5	EG2_24_86 (antibody, V domains shown) VH: QVQLVESGGGLVQAGDSLRVSCCASGRDFSDYVMGWFRQAPGKEREFVAAISRNGLTTRYADSVKGRFTISRDNDKNCVYLQMNSLKPEDTAVYYCAVNSAGTYVSPRSREYDYWGQGTQVTVSS
47.2	EG2_22_88 (antibody, V domains shown) VH: QVQLVESGGGLVQAGDSLRVCCAASGRDFSDYVMGWFRQAPGKEREFVAAISRNGLTTRYADSVKGRFTISRDNDKNMVCLQMNSLKPEDTAVYYCAVNSAGTYVSPRSREYDYWGQGTQVTVSS
25.7	EG2_6_119 (designed binder) QVQLVCSGGGLVQAGDSLRVSCAASGRDFSDYVMGWFRQAPGKEREFVAAISRNGLTTRYADSVKGRFTISRDNDKNMVYLQMNSLKPEDTAVYYCAVNSAGTYVSPRSREYDYWCQGTQVTVSS
10.6	EG2_4_25 (antibody, V domains shown) VH: QVQCVESGGGLVQAGDSLRVSCACSGRDFSDYVMGWFRQAPGKEREFVAAISRNGLTTRYADSVKGRFTISRDNDKNMVYLQMNSLKPEDTAVYYCAVNSAGTYVSPRSREYDYWGQGTQVTVSS
